Source: paper PMC4352895, “Jarid2 Methylation via the PRC2 Complex Regulates H3K27me3 Deposition during Cell Differentiation” (Molecular Cell, 2015)

Legend:
PRC2 = PRC2 HKMT activity with Jarid2 fragments (aa 109–450), recombinant or native chromatin; type: biochemical; conditions: native chromatin; equimolar amounts of Jarid2 fragments aa 109–450; n = 3
Excerpt: Figure 5 Jarid2 Methylation Regulates PRC2 Enzymatic Activity Depending on Chromatin Environment (A) HKMT assay performed with PRC2-Ezh2 on recombinant oligonucleosomes in the presence of peptides mimicking either Jarid2-K116me2 and me3 or H3K27me3. (B) HKMT assay as in (A) performed with PRC2-Ezh2 reconstituted with either Eed WT or F97A. (C) Table indicating the sequences of the peptides and the relative dissociation constant Kd (μM) for ΔEed binding measured by ITC. (D) Ribbons representation of ΔEed-Jarid2-K116me3 and ΔEed-H3K27me3 complexes. Eed is in gray; Jarid2 peptide is in yellow while H3 peptide is in purple, both in stick representation. Eed aromatic amino acids are in stick and cyan color. Top: top views. Bottom: zoom-in of side views. (E) HKMT assay as in (A) in presence of peptides Jarid2-K116me3 WT or F117A. (F) Left: representation of the chimeric proteins used in the HKMT assay. The red cross indicates the point mutations introduced in the protein to perform native chemical ligation. […] Right: quantification of PRC2-HKMT activity in the presence of the three Jarid2 fragments (mean ± SD, n = 3). […]
The N-terminal region of Jarid2 comprises distinct domains for both PRC2 and chromatin interactions ([Son et al., 2013]). […] We then monitored PRC2 enzymatic activity on recombinant or native nucleosomes either alone or in the presence of equimolar amounts of Jarid2 fragments (Figure 5F). […]

PRC2-Ezh2 = assay: HKMT assay, PRC2-Ezh2 with Jarid2 fragments, titration of H3K27me3 octamers in recombinant chromatin; type: biochemical; conditions: recombinant chromatin with increasing amount of H3K27me3 octamers
Excerpt: Figure 5 Jarid2 Methylation Regulates PRC2 Enzymatic Activity Depending on Chromatin Environment (A) HKMT assay performed with PRC2-Ezh2 on recombinant oligonucleosomes in the presence of peptides mimicking either Jarid2-K116me2 and me3 or H3K27me3. (B) HKMT assay as in (A) performed with PRC2-Ezh2 reconstituted with either Eed WT or F97A. (C) Table indicating the sequences of the peptides and the relative dissociation constant Kd (μM) for ΔEed binding measured by ITC. (D) Ribbons representation of ΔEed-Jarid2-K116me3 and ΔEed-H3K27me3 complexes. Eed is in gray; Jarid2 peptide is in yellow while H3 peptide is in purple, both in stick representation. Eed aromatic amino acids are in stick and cyan color. Top: top views. Bottom: zoom-in of side views. (E) HKMT assay as in (A) in presence of peptides Jarid2-K116me3 WT or F117A. (F) Left: representation of the chimeric proteins used in the HKMT assay. The red cross indicates the point mutations introduced in the protein to perform native chemical ligation. Red circle indicates K116me3. Right: quantification of PRC2-HKMT activity in the presence of the three Jarid2 fragments (mean ± SD, n = 3). […]
To evaluate a potential competition between H3K27me3 and Jarid2-K116me3, we reconstituted chromatin in presence of increasing ratios of octamers fully methylated on K27 and monitored PRC2 activity in presence of Jarid2 fragments (Figure 5G). […]

B1: fully methylated Jarid2 fragment: peptide containing aa 109–123 (K116me3) coupled through native chemical ligation with the aa 124–450 fragment (protein, UniProt Q92833 109-450, looked up, fragment)
chain: PRLQAQRKFAQSQPNSPSTTPVKIVEPLLPPPATQISDLSKRKPKTEDFLTFLCLRGSPALPNSMVYFGSSQDEEEVEEEDDETEDVKTATNNASSSCQSTPRKGKTHKHVHNGHVFNGSSRSTREKEPVQKHKSKEATPAKEKHSDHRADSRREQASANHPAAAPSTGSSAKGLAATHHHPPLHRSAQDLRKQVSKVNGVTRMSSLGAGVTSAKKMREVRPSPSKTVKYTATVTKGAVTYTKAKRELVKDTKPNHHKPSSAVNHTISGKTESSNAKTRKQVLSLGGASKSTGPAVNGLKVSGRLNPKSCTKEVGGRQLREGLQLREGLRNSKRRLEEAHQA
modifications: K116 trimethyl
notes: peptide containing aa 109–123 (K116me3) coupled through native chemical ligation with the aa 124–450 fragment
PRC2
  stimulation of PRC2 enzymatic activity relative to K116A or K116R fragments, result in words: this stimulation was lost
PRC2-Ezh2
  effect of H3K27me3 titration on Jarid2-mediated stimulation of PRC2, result in words: no effect on the stimulation of PRC2 mediated by Jarid2
